Data taken from article doi:10.1101/2021.09.13.460064.
Like-named read-outs stand apart in the source and are kept apart here.

Key:
Experiment in all cases: SEC-MALS
[1] = molecular target: His-tagged N. castellii Kar9 N-terminal domain, wild type (NcKar9N-αβγ) (Naumovozyma castellii)
[2] = molecular target: His-tagged NcKar9N-αβ• (γ-interface mutant, Tyr363Ala/Arg364Ala) (Naumovozyma castellii)
[3] = molecular target: His-tagged NcKar9N-αβ• (γ-interface mutant, Tyr363Ala/Arg364Ala) (Naumovozyma castellii); remark: listed apart in the source
[4] = molecular target: His-tagged NcKar9N-α•γ (β-interface mutant, Arg233Ala/Ile237Ala) (Naumovozyma castellii)
[5] = molecular target: His-tagged NcKar9N-α•γ (β-interface mutant, Arg233Ala/Ile237Ala) (Naumovozyma castellii); remark: listed apart in the source

Substance: His-tagged N. castellii Kar9 N-terminal domain, wild type (NcKar9N-αβγ) (domain or fragment)
- stoichiometry N [1]: 2

Substance: His-tagged NcKar9N-αβ• (γ-interface mutant, Tyr363Ala/Arg364Ala) (domain or fragment)
- stoichiometry N [2]: < 4
- stoichiometry N [3]: < 4

Substance: His-tagged NcKar9N-α•γ (β-interface mutant, Arg233Ala/Ile237Ala) (domain or fragment)
- stoichiometry N [4]: 2
- stoichiometry N [5]: 2
